Earlier results, collected in patent US20210338656A1, “IMMUNOSTIMULATORY AGENTS IN COMBINATION WITH ANGIOGENESIS INHIBITORS” (Alkermes Pharma Ireland Limited, priority 2020, published 2021).

System: CD8+ T cells, NK cells, Tregs
Conditions: human patients; cited from earlier work

B1: fusion protein of SEQ ID NO: 1: circularly permuted (cp) IL-2 variant fused to the extracellular domain of the IL-2Rα portion of the IL-2 receptor (protein)
chain: SKNFHLRPRDLISNINVIVLELKGSETTFMCEYADETATIVEFLNRWITFSQSIISTLTGGSSSTKKTQLQLEHLLLDLQMILNGINNYKNPKLTRMLTFKFYMPKKATELKHLQCLEEELKPLEEVLNLAQGSGGGSELCDDDPPEIPHATFKAMAYKEGTMLNCECKRGFRRIKSGSLYMLCTGNSSHSSWDNQCQCTSSATRNTTKQVTPQPEEQKERKTTEMQSPMQPVDQASLPGHCREPPPWENEATERIYHFVVGQMVYYQCVQGYRALHRGPAESVCKMTHGKTRWTQPQLICTG
modifications: Human cpIL-2IL-2R-alpha
notes: circularly permuted (cp) IL-2 variant fused to the extracellular domain of the IL-2Rα portion of the IL-2 receptor
- activation of T regs: absence of dose dependent activation
- expansion of CD8+ T cells and NK cells: in a dose dependent manner
- relative expansion of immunosuppressive Tregs as compared to high dose rhIL-2: at least two fold less
